Data published in the supplement of paper PMC12042874.
± gives the uncertainty stated by the source.

Test: amyloid nucleation score (Sup35N fusion, yeast selection) (log enrichment); library NNK3; higher = more nucleation; inactive = no reads after selection
Summary of the method: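 The nucleation score equals the log enrichment of output over input reads from DiMSum, centred on the mode score of non-aggregating sequences. It was computed only for sequences with 100 or more input reads. The reads came from Illumina sequencing of plasmid inserts from psi-negative yeast expressing Sup35N fused to peptides of 20 random codons, induced with 100 μM copper sulfate for 24 hours and grown 7 days at 30°C without adenine and uracil.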

Row | Substance | amyloid nucleation score
1 | CICKFTDLMHTGACLNILSR | 1.58 ± 0.11
2 | ALCRASEVIWWARVSGGCVL | inactive
3 | SMTHRPTAVHSDVHGQCVKW | inactive
4 | LFRLACVTNMRSNLLSYRRC | 0.131 ± 0.64
5 | DIVVGAQRNELFS | inactive
6 | LVFSTSLH | inactive
7 | TKYFRSNNPFHLVYTYIYLT | inactive
8 | SQASLFFSGWWILFTYMLGW | inactive
9 | SDRYDCRDGSCFNRKVRYSL | inactive
10 | TQDCG | inactive
11 | HAQCLMSIIEVS | -0.029 ± 1.1
12 | DIGMDGYRLLRRSQQRYFMN | inactive
13 | TYCSYTL | inactive
14 | VSYWNEHHSEIVPLGCF | inactive
15 | SFVYCIVYLQSPFVLSTMVG | 2.62 ± 0.078
16 | NYRERS | inactive
17 | LCKIRECHCNLYHRVYMGWN | inactive
18 | TALAEQ | -0.402 ± 1.3
19 | LVLVQEKHRSRTAEFDHRLT | -0.186 ± 0.94
20 | VLVESDLSVIATVSGLLCAR | inactive
21 | TQNGVCYRNPVFYGRRARKL | inactive
22 | YYVIDILVW | inactive
23 | CRQSVCFGAVC | inactive

Row | Substance | amyloid nucleation score
24 | AMQIYTLVMGSPRDFDYWKV | 1.14 ± 0.11
25 | IKVWRGKVG | inactive
26 | ASRSDCTRYIMTTMIWWHFP | inactive
27 | LVPFSNGCQSGPLTLIWYVA | 2.04 ± 0.068
28 | FVLKRYRCFLYLVQYDISTL | -0.326 ± 0.98
29 | VYTRLVYIYQGVFCRIFSAC | 1.86 ± 0.094
30 | VISISRFDGWQRAHVKVRVS | inactive
31 | TENKSMSFFNYDRAYARIL | inactive
32 | VSFVSSVIVDGMPEILSIRY | inactive
33 | LVWRTSINSLRMVEDNRDEV | inactive
34 | SLSTSNLNIKLSPCYSFNRH | 0.678 ± 0.31
35 | FDWIQDHSQCGIIFTCVKLG | inactive
36 | RCMTHRTLAHENRFVHTRCW | inactive
37 | IFLDNFFKSFFGRRGSKS | 0.662 ± 0.13
38 | VCAGNTDPWSQELIPYRKC | inactive
39 | CWYLVLSRLLCKNSRLHSNR | inactive
40 | SSWADYSKPYSGFCQGYRVY | inactive
41 | KDKACRNCHKGVMRVTWVK | 0.012 ± 0.87
42 | WCGQWWLLASGVQSFQCCVY | 1.39 ± 0.13
43 | KLVFTIRVF | inactive
44 | MIVGYACFAFGAWFFGFYCM | inactive
45 | MGGELCY | inactive
46 | TEVPFRVSF | inactive

Row | Substance | amyloid nucleation score
47 | KPLCLFQARRYRW | inactive
48 | GHMTVSTWWNIVYMAKGYRV | -0.425 ± 0.8
49 | SDFDMFSCLGNRNLHCSVSV | inactive
50 | KLVAGFPAGCTK | inactive
51 | VCYVKYSSLLCMNLGIRHRT | inactive
52 | TLNVVPR | inactive
53 | MIRSVLLIQFNALEHSVRCR | inactive
54 | SYSTARDSVGLSSWSSLIKW | inactive
55 | TVSKCSERRVCTPGDSCVAC | inactive
56 | DYALC | inactive
57 | LSDYIGAPFSSKSRDW | inactive
58 | QQMGYGKADSMFTSLVVYTM | inactive
59 | RNGIVGD | inactive
60 | AITHRIDS | inactive
61 | GPLRVPVMMGCWRRIDRMPW | inactive
62 | CFASWN | inactive
63 | TDRTQ | inactive
64 | FCTGWSNGLVNHVDYKKGRN | inactive
65 | DMATVIVSKLFTVVVWYLFW | inactive
66 | SFSYWGKDRSRVSNL | inactive
67 | FKLSMLA | inactive
68 | DISQGLRRNSSGYLVQRGYA | inactive
69 | PIPTKLLVLKRQSTMHLDRF | inactive

Row | Substance | amyloid nucleation score
70 | VGIALASIK | inactive
71 | FYLHSFRLNHSLRDLSDLGE | inactive
72 | ECCGDLGAVWQVVRNCGKVL | inactive
73 | IMRSY | inactive
74 | VQFFNDRSLVDSQIGRLLLP | inactive
75 | MGPWCRKWIICLTRVSYRVG | inactive
76 | QPLARRIGHISV | inactive
77 | LLSLAYVMRYI | 1.38 ± 0.068
78 | KCKANPEDNVRFLRLVYGAS | inactive
79 | VYFLSVQLLYLFLSSALQRE | inactive
80 | STVRVWHCLFFFLIGVHNCC | inactive
81 | FYSFWYPFTVSAMRLYWCSW | inactive
82 | VADRVSSK | inactive
83 | VTVIYNVDYCKETIFQMVVT | 0.124 ± 0.48
84 | LYTGYVLAIMYWAVLARENT | -1.45 ± 2.5
85 | CCSMARAITISGNVELKFD | inactive
86 | SFNLTNSKYWVR | inactive
87 | RQTTYHGGKWLCSSVSGMYN | inactive
88 | RADSGGKCLLAELDGLSPYW | inactive
89 | RVMAMYIGV | inactive
90 | DVMRGIKYVRRVNAQLTGSS | inactive
91 | LSASGYQSCSNVMMSTHVSN | inactive
92 | KNLRVLGSSLIGLTLIECHG | -0.801 ± 1.1

Row | Substance | amyloid nucleation score
93 | WLFMIARTYR | inactive
94 | PHRGACMARTLSEVFCRAGS | inactive
95 | RSKNWAVIMIGR | inactive
96 | SRSSWGPSAIPYYKKLFMLF | inactive
97 | HVFRLCMGKTELAYFY | inactive
98 | CIWHLHLLFLEGVYV | inactive
99 | MVCNGFRDDRVMIVK | inactive
100 | YRIYFLRCPDLTRMFNFVEL | inactive
101 | RLETMGLRNNVVCNSSEALQ | inactive
102 | RITGSRFCHCDLVNCDATVC | inactive
103 | LDNTLDN | inactive
104 | QLINWFRSDDLSLTAVKRKW | 0.596 ± 0.19
105 | LFGYSNSRRHMIGMQSY | inactive
106 | RYRNIYC | inactive
107 | DNMSKTSFKLTNCRQCIM | inactive
108 | IQAAEVWMTAPFGFDMEGGR | inactive
109 | SQLQVISKIENSRKVIQRSS | inactive
110 | INHLSWCPVYFYFWNPVYLR | 1.49 ± 0.11
111 | EKRPNPVSICLRWIKEKAT | inactive
112 | GFLTKCALWKIWF | inactive
113 | LNWVKTYVAYLFFYSISKRC | inactive
114 | HSRVWGKYSGSLPGKM | inactive
115 | CFLSQLNTSDACVCLRFGWG | inactive

Row | Substance | amyloid nucleation score
116 | SERYADL | inactive
117 | TEVSQWGVREVFSLSTSRRL | 0.372 ± 0.28
118 | FNSRNSVVTDLRYWSIRGLV | inactive
119 | WILLGRSSQWSWASGGNSGQ | 1.5 ± 0.092
120 | SEVGMVSLRLFWLWWVTKPK | inactive
121 | RFHSSLCCNMVWF | 3.06 ± 0.06
122 | YYCCC | 1.63 ± 0.072
123 | IHGHC | inactive
124 | YFLKDKPVNRMIQ | 1.75 ± 0.083
125 | SSMWCMDRSLYTNYEYQRVL | 0.054 ± 0.36
126 | DSSRTVGCLSCFYFAIGFWI | 0.681 ± 0.34
127 | VNGCIRCCTPVSKYISVDLA | inactive
128 | CGTFNCYNGAL | 0.699 ± 0.19
129 | YCTYN | inactive
130 | DMVLSEPFFFGLCFLDFWIF | inactive
131 | KWKFCSGYAELMLP | inactive
132 | NQALNILFYLNSSKSCVYPY | 2.47 ± 0.063
133 | YRGWLNPEYHRLVN | 0.008 ± 0.85
134 | FMTWHFENCCWCRHSRFGLL | inactive
135 | SIRYFRLSGMMSMYFFCFVV | 0.952 ± 0.14
136 | FYLGEYETLFVKDIRGDSVP | -0.97 ± 1.1
137 | MSPLGTCYRILKLDYCKYAV | -0.328 ± 0.55
138 | IRMHGWPYRLVREICFNGFF | 0.028 ± 0.5

Row | Substance | amyloid nucleation score
139 | TGYCYMILLRNGVQVSVEGT | 0.092 ± 0.81
140 | TFWKKGMPGIIYRYFYLF | inactive
141 | LYINVHLEEIIFSLALREK | 1.71 ± 0.057
142 | FFIDQLKEFSHY | inactive
143 | LLVMWWYRLTGPDGVSNWR | inactive
144 | SIDDGLSYLMGKVKIHKSGK | inactive
145 | PVYVG | inactive
146 | SVTLLFLKLYIR | inactive
147 | MCGDCICVVSVMLAHAPKCS | inactive
148 | FVVLLGFYHLASQDAYRGAL | 1.09 ± 0.14
149 | YEVSTRRRVM | inactive
150 | FLILSNEIMPLFTWANKRLE | inactive
151 | GCLVRCDFVSQCLNWDG | inactive
152 | TQLNTFYSVITSSFMIDFC | inactive
153 | TLGIWRDYSYKTILRRWDDR | inactive
154 | CLMSVSAPFHVFALYIQLFC | inactive
155 | SVNCHHLPNLHCWKYTKVEY | inactive
156 | RVWMIGGYSDLFHWNSVLVS | inactive
157 | SKMRRSFCPIWFSRWSFLST | inactive
158 | DFRSLWTRLSSHRSAFYLLS | inactive
159 | CLDHIAPKRKIQEVGLS | inactive
160 | FFFTSKSLGPVTLTLISVSD | inactive
